Structures can show the parent of a compound that is named as a salt.
What was measured:
[1] = test system: ammonia water-induced cough in mice; assay: Antitussive effect on ammonia water-induced cough in mice; format: in vivo, ICR mice; conditions: for Latency period: 1 hour before 10% ammonia water 10 seconds, solvent control 30.0 ± 1.8; for Latency period / Cough frequency: X ± SEM; for Cough frequency: within 2 minutes, 1 hour before 10% ammonia water, solvent control 65.5 ± 3.8
Procedure: • Animals: male ICR mice; • Drug and reagents: dextromethorphan hydrobromide, ammonia, 0.2% CMC-Na, protein CF1; • Instruments: Compressed nebulizer (403T), balance (XS105DU). • Experiment grouping: • Solvent control group; • Dextromethorphan 15 mg/kg group; • Protein CF1, 20 mg/kg group, 50 mg/kg group.
Model establishment and drug administration: Mice were orally administered dextromethorphan or varying doses of protein CF1 (administration volume: 10 ml/kg). The solvent control group were administered an equal volume of distilled water. After 1 hour, mice were placed in a sealed chamber and atomized with 10% ammonia water for 10 seconds. The cough latency period and cough frequency within 2 minutes were then observed and recorded.
Data processing: The oral administration time point, the nebulization exposure time point, the cough latency period, and the cough frequency within 2 minutes were recorded respectively. The cough latency period refers to the time interval of seconds required from the start of ammonia nebulization to the occurrence of coughing. The manifestation of coughing in mice is characterized by the contraction of their abdominal muscles (chest retraction) and the opening of their mouths wide. The mean and standard error of data in each group were calculated. The TTEST test was applied to compare the model group with the other groups. P<0.05 was considered as a significant difference.

[2] = test system: lipopolysaccharide (LPS) induced fever in rats; assay: Lipopolysaccharide (LPS)-induced SD rat fever model; format: in vivo, SD rats; conditions: for Body temperature 2 hours after modeling / Body temperature 4 hours after modeling / Body temperature 6 hours after modeling / Body temperature 8 hours after modeling: then LPS 20 μg/kg i.p.; for Body temperature 2 hours after modeling / Body temperature 4 hours after modeling: model group 37.7 ± 0.1; for Body temperature 6 hours after modeling: model group 37.8 ± 0.2; for Body temperature 8 hours after modeling: model group 37.9 ± 0.2; for Effect on body temperature of model rats (in words): P<0.05 vs model group
Procedure: • Animals: Male SD rats, weight: 230-260 grams; • Drugs: lipopolysaccharide (LPS, SIGMA L-2880), aspirin (SIGMA A2093), protein CF1; • Instruments: electronic balance (SARTORIUS BP121S), electronic clinical thermometer (CITIZEN CT-513W). • Experiment grouping: • Normal control group; • Model group: lipopolysaccharide fever model group; • Positive control group: Aspirin 300 mg/kg group; • Protein CF1, 10 mg/kg group, 50 mg/kg group. • Method: the method for replicating the rat fever model via intraperitoneal injection of lipopolysaccharide. • Preparation of experimental animals: After the experimental animals were adapted to the experimental environment (temperature 22° C.±2° C., relative humidity 50%±2%) for 1 day, the rectal temperature was measured for pre-adaptation at 8:00 in the morning and 15:00 respectively. The animals were fasted for 12 hours before the experiment with water provided ad libitum, and their bowels were emptied before the rectal temperature was measured. Before each temperature measurement, the probe of the electronic thermometer was applied with Vaseline and inserted 2 cm into the rat's rectum (a marker was made at 2 cm to ensure consistent insertion depth each time). The body temperature was recorded after readings stabilized.
(§1) Intraperitoneal Injection of Lipopolysaccharide to replicate the rat fever model: Before model establishment, the body temperature of rats was measured. Qualified rats with body temperatures of 36.2-37.3° C. were selected and randomly grouped, with 8 rats per group. After oral administration of aspirin and different doses of protein CF1, lipopolysaccharide (20 μg/kg, 2 ml/kg) was immediately intraperitoneally injected. The normal control group was intraperitoneally injected with the same volume of normal saline. The body temperatures of rats were monitored 2 hours later and for a total of 8 hours.
(§2) Based on the body temperature values measured at each time point on the day of the experiment, the mean, standard deviation and standard error of body temperature of rats in each group were calculated. The TTEST test was applied to compare the data of each group between groups, and P<0.05 was considered as a significant difference.

[3] = test system: yeast-induced fever model in rats; assay: Yeast-induced SD rat fever model; format: in vivo, SD rats; conditions: for Basal body temperature: rectal temperature before modeling, N=8; for Body temperature 2 hours after modeling / Body temperature 6 hours after modeling / Body temperature 8 hours after modeling / Body temperature 4 hours after modeling: then 20% yeast suspension 10 ml/kg s.c.; for Body temperature 2 hours after modeling: model group 37.5 ± 0.1; for Body temperature 6 hours after modeling / Body temperature 8 hours after modeling: model group 37.6 ± 0.1; for Body temperature 4 hours after modeling: model group 37.7 ± 0.1; for Effect on body temperature of model rats (in words): P<0.05 vs model group
Procedure: • Animals: male SD rats, weight 230-260 grams; • Medicines: yeast (OXOID LP0021), Aspirin (SIGMA A2093), protein CF1; • Instruments: electronic balance (SARTORIUS BP121S), electronic clinical thermometer • (CITIZEN CT-513W). • Experiment grouping: • Normal control group; • Model group: yeast-induced fever model; • Positive control group: Aspirin 300 mg/kg group; • Protein CF1, 10 mg/kg group, 50 mg/kg group.
Preparation of experimental animals: After the experimental animals were adapted to the experimental environment (temperature 22° C.±2° C., relative humidity 50%±2%) for 1 day, the rectal temperature was measured for pre-adaptation at 8:00 in the morning and 15:00 respectively. The animals were fasted for 12 hours before the experiment with water provided ad libitum, and their bowels were emptied before the rectal temperature was measured. Before each temperature measurement, the probe of the electronic thermometer was applied with Vaseline and inserted 2 cm into the rat's rectum (a marker was made at 2 cm to ensure consistent insertion depth each time). The body temperature was recorded after readings stabilized.
as §1, with “Subcutaneous injection” for “Intraperitoneal Injection”, “dry yeast” for “Lipopolysaccharide”, “20% yeast suspension (10” for “lipopolysaccharide (20 μg/kg, 2”, “subcutaneously” for “intraperitoneally”, “later, once every 2 hours,” for “later and”
as §2

[4] = aspirin 300 mg/kg oral, 2, 4, 6 and 8 hours after modeling

## COc1ccc2c(c1)[C@]13CCCC[C@@H]1[C@H](C2)N(C)CC3 [Dextromethorphan, dextromethorphan hydrobromide, reference compound]
[1]; dextromethorphan 15 mg/kg oral
  Latency period: 45.4 ± 2.1 s
  Cough frequency: 36.8 ± 2.8
[1]; dextromethorphan 15 mg/kg oral, vs solvent control group, P<0.05
  Effect on latency period and cough frequency (in words): significant improvements in terms of latency period and cough frequency

## CC(=O)Oc1ccccc1C(=O)O [Aspirin, aspirin, reference compound]
[2]; aspirin 300 mg/kg oral
  Body temperature 2 hours after modeling: 37.0 ± 0.2 °C
  Body temperature 4 hours after modeling: 37.0 ± 0.2 °C
  Body temperature 6 hours after modeling: 37.3 ± 0.1 °C
  Body temperature 8 hours after modeling: 37.2 ± 0.1 °C
[2]; [4]
  Effect on body temperature of model rats (in words): can effectively inhibit the increase of body temperature
[3]; aspirin 300 mg/kg oral group
  Basal body temperature: 36.9 ± 0.1 °C
[3]; aspirin 300 mg/kg oral
  Body temperature 2 hours after modeling: 36.9 ± 0.1 °C
  Body temperature 6 hours after modeling: 37.2 ± 0.1 °C
  Body temperature 8 hours after modeling: 37.1 ± 0.1 °C
  Body temperature 4 hours after modeling: 37.1 ± 0.2 °C
[3]; [4]
  Effect on body temperature of model rats (in words): can effectively inhibit the increase of body temperature

B1: CF1: keratin with the amino acid sequence of SEQ ID NO. 1, expressed in E. coli; tested batch is the protein in Example 7 (protein)
chain: MSCRSYRVSSGHRVGNFSSCSAGIPRNLNRFRASSVSCRSGPSFRGIGGFGSRSVITFGSCSPRIAAVGPRPIRCGVGFGAGSGMAFGFGDGIGAGLGFGSGSYLGYGFGGPGFGYRVGGIGVPAAPSITPVTVNQSLLTPLNLEIDPNAQRVKRDEKEQIKTLNNRFASFIDKVRFLEQQNKLLETKWSFLQEQKGARSNLEPLFENYITNLQRQLDIANSERARFEAERNQLQDVLEGFKKKYEEEVVFRANAENEFVALKKDVDAAFLNKAELEANVDTLTQEIDFLKTLYAAEIQLLQSHISETSVIVKMDNSRDLDLDGIIAEVRAQYEEVAKRSRADAEAWYQTKYEEMRVTAGQHCDNLRNTREEINELTRLIQRLKAEIEHAKAQRARLEAAVAEAEQQGEAALNDAKCKLADLEAALQQAKQDMARQLREYQELMNAKLGLDIEIATYRRLLEGEEIRICEGVGPVNISVSSSRGGVVCGPESLVTSSTLSRSGVTFSGSSSIRPSGACGSSLGGVVVAGGDLLSAGSRGGSVLVGEACVPSVPCPLPTEGFSSCSGGRSSSLRFVSTTTSRRTKY
[2]; 2 hours post-modeling, dose not stated
  Effect on body temperature of model rats (summary, in words): significant effect in reducing the body temperature
[2]; CF1 10 mg/kg oral
  Body temperature 2 hours after modeling: 37.3 ± 0.1 °C
  Body temperature 4 hours after modeling: 37.7 ± 0.2 °C
  Body temperature 6 hours after modeling: 37.7 ± 0.2 °C
  Body temperature 8 hours after modeling: 37.9 ± 0.1 °C
[2]; CF1 10 mg/kg oral, 2 hours after modeling
  Effect on body temperature of model rats (in words): can significantly reduce the body temperature
[2]; CF1 50 mg/kg oral group, rectal temperature before modeling, N=8
  Basal body temperature: 36.8 ± 0.05 °C
[2]; CF1 50 mg/kg oral
  Body temperature 2 hours after modeling: 37.3 ± 0.2 °C
  Body temperature 4 hours after modeling: 37.6 ± 0.2 °C
  Body temperature 6 hours after modeling: 37.9 ± 0.2 °C
  Body temperature 8 hours after modeling: 37.9 ± 0.1 °C
[3]; 8 hours post-modeling, dose not stated
  Effect on body temperature of model animals (summary, in words): significant effect in reducing the elevated body temperature
[3]; CF1 10 mg/kg oral group
  Basal body temperature: 36.9 ± 0.1 °C
[3]; CF1 10 mg/kg oral
  Body temperature 2 hours after modeling: 37.0 ± 0.1 °C
  Body temperature 6 hours after modeling: 37.4 ± 0.1 °C
  Body temperature 8 hours after modeling: 37.2 ± 0.05 °C
  Body temperature 4 hours after modeling: 37.3 ± 0.1 °C
[3]; CF1 10 mg/kg oral, 2 hours and 8 hours post-modeling
  Effect on body temperature of model rats (in words): can significantly inhibit the temperature elevation
[3]; CF1 50 mg/kg oral group
  Basal body temperature: 36.8 ± 0.1 °C
[3]; CF1 50 mg/kg oral
  Body temperature 2 hours after modeling: 36.8 ± 0.1 °C
  Body temperature 6 hours after modeling: 37.4 ± 0.1 °C
  Body temperature 8 hours after modeling: 37.4 ± 0.1 °C
  Body temperature 4 hours after modeling: 37.2 ± 0.1 °C
[1]; CF1 20 mg/kg oral
  Latency period: 34.6 ± 3.1 s
  Cough frequency: 50.1 ± 2.8
[1]; CF1 20 mg/kg oral, vs solvent control group
  Effect on cough frequency (in words): statistically significant difference in term of cough frequency, but the effect is weak
[1]; CF1 50 mg/kg oral
  Latency period: 35.1 ± 4.6 s
  Cough frequency: 56.4 ± 4.2
[1]; dose not stated
  Antitussive effect (summary, in words): can reduce the cough frequency

Source: patent US20260201002A1, “KERATIN CF1, PREPARATION METHOD THEREFOR, PHARMACEUTICAL COMPOSITION COMPRISING SAME, AND USE THEREOF” (INSTITUTE OF MATERIA MEDICA ,CHINESE ACADEMY OF MEDICAL …, priority 2023, published 2026)
